{"source": "paper PMC5487423", "biological_target": "P991_AMBCA, purified, C-terminal StrepII-8xHis tag (Amblyomma cajennense)", "assay": "BLI; Kd and koff determination: His-tagged evasin immobilised on Ni-NTA biosensor (OctetRed), chemokine dilutions from 300 nM to 0.4 nM, 30 °C, same buffer as the screen; reference protein subtracted; 1:1 model with global fit, or steady state; each experiment once"}
{"substance": "CCL13 (from UniProt Q99616 17-98) (ligand)", "values": [{"measurement": "dissociation half-life", "value": 2.72, "unit": "h"}]}
